To fix the notation:
B4: human FcγRIIB extracellular domain protein (receptor, UniProt P31994 43-217, looked up)
chain: TPAAPPKAVLKLEPQWINVLQEDSVTLTCRGTHSPESDSIQWFHNGNLIPTHTQPSYRFKANNNDSGEYTCQTGQTSLSDPVHLTVLSEWLVLQTPHLEFQEGETIVLRCHSWKDKPLVKVTFFQNGKSKKFSRSDPNFSIPQANHSHSGDYHCTGNIGYTLYSSKPVTITVQAP
notes: extracellular domain; SPR: His-tagged, immobilised; ELISA: biotinylated; also called hFcγRIIB; CD32b
B5: human FcγRIIA-R131 extracellular domain protein (receptor, UniProt P12318 34-217, looked up)
chain: QAAAPPKAVLKLEPPWINVLQEDSVTLTCQGARSPESDSIQWFHNGNLIPTHTQPSYRFKANNNDSGEYTCQTGQTSLSDPVHLTVLSEWLVLQTPHLEFQEGETIMLRCHSWKDKPLVKVTFFQNGKSQKFSRLDPTFSIPQANHSHSGDYHCTGNIGYTLFSSKPVTITVQVPSMGSSSPMG
notes: extracellular domain; SPR: His-tagged, immobilised; ELISA: biotinylated; also called hFcγRIIA-R131; CD32a

Assay [1] concerns the target T1, recombinant murine CD40 protein (murine, UniProt P27512 24-193, limits assumed).
T1 construct: Bought; coated on the ELISA plate; also called mouse CD40; mCD40
T1 sequence (looked up): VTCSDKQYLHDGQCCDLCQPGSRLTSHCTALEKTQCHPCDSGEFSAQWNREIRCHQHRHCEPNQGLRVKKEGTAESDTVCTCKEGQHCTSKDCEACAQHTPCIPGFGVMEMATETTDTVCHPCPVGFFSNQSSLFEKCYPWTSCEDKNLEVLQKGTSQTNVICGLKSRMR
Kind of assay: ELISA: plate coated with recombinant murine CD40, antibody in gradient dilutions, HRP-labelled goat anti-human IgG-Fc secondary antibody, A650. As for the experimental part:
(§1) For assay on anti-human CD40 antibodies, an ELISA plate was coated with recombinant human CD40 protein (Novoprotein Scientific Inc.) overnight at atmospheric temperature, blocked using 1% BSA at room temperature for 2 h, and then washed three times with PBST (0.05% Tween 20 in PBS). To each well was added […] gradient dilutions of the human agonistic CD40 antibody. The plate was incubated at room temperature for 1 h and washed four times with PBST. Then, 100 ng/ml biotinylated secondary antibody against human Igκ light chain was added, incubated at room temperature for 1 h and washed 4 times with PBST. SAV-HRP at an appropriate concentration was added, incubated at room temperature for 1 h. Then, chromogenic substrate was added to react for 5 minutes, and optical absorbance was determined at 650 nm.
For assay on anti-murine CD40 antibodies, the process was the same, expect that the plate was coated with recombinant murine CD40 protein (Novoprotein Scientific Inc.) and HRP-labeled goat anti-human IgG-Fc antibody was used as the secondary antibody.
On the technique in general: An ELISA detects its analyte on a solid surface through an enzyme-linked reagent.

Assay [2] concerns the target B4. Kind of assay: SPR, Biacore T100, FcγR extracellular domain immobilised, 1:1 model. On the technique in general: SPR reads the build-up and loss of mass on a sensor chip optically.
For assay [3], the target named is B5. The description is as above.
For assay [4], the target named is Fc fragment of heavy chain constant region G1 (hIgG1) (human, UniProt P0DOX5 234-449 = IgG part). The description is as above.
In assay [5] the target is T2, human FcγRIIIA-F158 extracellular domain protein (human, UniProt P08637 17-208).
T2 construct: extracellular domain; SPR: His-tagged, immobilised; also called hFcγRIIIA-F158; CD16a
T2 sequence (P08637 17-208): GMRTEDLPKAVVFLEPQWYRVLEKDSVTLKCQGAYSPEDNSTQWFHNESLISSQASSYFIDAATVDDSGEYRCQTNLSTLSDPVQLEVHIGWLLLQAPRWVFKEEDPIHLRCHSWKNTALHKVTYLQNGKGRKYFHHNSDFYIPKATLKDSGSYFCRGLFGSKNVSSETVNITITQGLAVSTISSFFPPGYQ
In words: SPR, Biacore T100, FcγR extracellular domain immobilised.

For assay [6], the target named is T3, human FcγRI extracellular domain protein (human, UniProt P12314 16-292).
T3 construct: extracellular domain; also called hFcγRI; CD64
T3 sequence (P12314 16-292): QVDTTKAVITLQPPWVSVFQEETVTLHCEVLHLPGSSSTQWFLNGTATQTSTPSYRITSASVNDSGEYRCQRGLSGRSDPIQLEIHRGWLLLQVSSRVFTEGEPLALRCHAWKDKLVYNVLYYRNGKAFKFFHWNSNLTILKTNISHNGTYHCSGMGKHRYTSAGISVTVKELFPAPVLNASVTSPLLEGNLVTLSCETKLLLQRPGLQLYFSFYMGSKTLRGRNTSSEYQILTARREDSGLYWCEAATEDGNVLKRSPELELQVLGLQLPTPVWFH
In words: SPR, Biacore T100, FcγR extracellular domain immobilised, 1:1 model.

In assay [7] the target is B5. In words: ELISA: plate coated with the anti-human CD40 antibody, biotinylated human FcγRIIA-R131 extracellular domain, streptavidin-HRP, A650 [FcγRIIA-R131 panels]. As for the experimental part: (§2) The ELISA plate was coated with 100 μL antibody at an appropriate concentration overnight, supernatant being discarded. The plate was blocked with 1% BSA in PBS for 2 hours, followed by washing with PBST (PBS with 0.05% Tween 20). Then, biotinylated FcγR extracellular domain protein (Sino Biologic Inc., Beijing China) at a concentration as appropriate was added and incubated at room temperature for 1 hour, supernatant being discarded, followed by PBST wash. Streptavidin-HRP (BD Biosciences) was added and incubated at room temperature for 1 hour for detection of biotin protein. After removal of supernatant, developing solution was added to react for 20-40 minutes, and absorbance was determined at 650 nm (A650).

In assay [8] the target is T4, recombinant human CD40 protein (human, UniProt P25942 21-193).
T4 construct: Bought; coated on the ELISA plate; also called hCD40
T4 sequence (P25942 21-193 limits assumed): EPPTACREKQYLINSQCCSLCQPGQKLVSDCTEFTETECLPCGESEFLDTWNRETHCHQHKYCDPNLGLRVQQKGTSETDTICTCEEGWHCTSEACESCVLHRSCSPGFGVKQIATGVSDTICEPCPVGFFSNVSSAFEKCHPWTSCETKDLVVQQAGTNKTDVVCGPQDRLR
In words: ELISA: plate coated with recombinant human CD40, antibody in gradient dilutions, biotinylated anti-human Igκ light chain secondary antibody, SAV-HRP, A650. As for the experimental part:
as §1

The target in assay [9] is B5. Kind of assay: ELISA: plate coated with the anti-human CD40 antibody, biotinylated human FcγRIIA-R131 extracellular domain, streptavidin-HRP, A650 [upper FcγRIIA-R131 panel]. As for the experimental part: as §2

B1: Anti-mCD40-hIgG1(V11) (antibody)
heavy: EVQLVESDGGLVQPGRSLKLPCAASGFTFSDYYMAWVRQAPTKGLEWVASISYDGSSTYYRDSVKGRFTISRDNAKSTLYLQMDSLRSEDTATYYCGRHSSYFDYWGQGVMVTVSSATTKGPSVFPLAPSSKSTSGGTAALGCLVKDYFPEPVTVSWNSGALTSGVHTFPAVLQSSGLYSLSSVVTVPSSSLGTQTYICNVNHKPSNTKVDKRVEPKSCDKTHTCPPCPAPELLGDDSVFLFPPKPKDTLMISRTPEVTCVVVDVSDEDGEVKFNWYVDGVEVHNAKTKPREEQYNSTYRVVSVLTVLHQDWLNGKEYKCKVSNKALPRPIEKTISKAKGQPREPQVYTLPPSRDELTKNQVSLTCLVKGFYPSDIAVEWESNGQPENNYKTTPPVLDSDGSFFLYSKLTVDKSRWQQGNVFSCSVMHEALHNHYTQKSLSLSPGK
light: DTVLTQSPALAVSPGERVTISCRASDSVSTLMHWYQQKPGQQPKLLIYLASHLESGVPARFSGSGSGTDFTLTIDPVEADDTATYYCQQSWNDPWTFGGGTKLELKRTVAAPSVFIFPPSDEQLKSGTASVVCLLNNFYPREAKVQWKVDNALQSGNSQESVTEQDSKDSTYSLSSTLTLSKADYEKHKVYACEVTHQGLSSPVTKSFNRGEC
notes: Chimeric anti-murine CD40 antibody, heavy chain constant region V11(H1)
For the molecule B1, in [1], the half-maximal effective concentration (EC50 (read off the curve)) was roughly 0.1 µg/mL.

B2: Anti-mCD40-hIgG2(V11) (antibody)
heavy: EVQLVESDGGLVQPGRSLKLPCAASGFTFSDYYMAWVRQAPTKGLEWVASISYDGSSTYYRDSVKGRFTISRDNAKSTLYLQMDSLRSEDTATYYCGRHSSYFDYWGQGVMVTVSSASTKGPSVFPLAPCSRSTSESTAALGCLVKDYFPEPVTVSWNSGALTSGVHTFPAVLQSSGLYSLSSVVTVPSSNFGTQTYTCNVDHKPSNTKVDKTVERKCCVECPPCPAPELLGDDSVFLFPPKPKDTLMISRTPEVTCVVVDVSDEDGEVKFNWYVDGVEVHNAKTKPREEQYNSTYRVVSVLTVLHQDWLNGKEYKCKVSNKALPRPIEKTISKAKGQPREPQVYTLPPSRDELTKNQVSLTCLVKGFYPSDIAVEWESNGQPENNYKTTPPVLDSDGSFFLYSKLTVDKSRWQQGNVFSCSVMHEALHNHYTQKSLSLSPGK
light: DTVLTQSPALAVSPGERVTISCRASDSVSTLMHWYQQKPGQQPKLLIYLASHLESGVPARFSGSGSGTDFTLTIDPVEADDTATYYCQQSWNDPWTFGGGTKLELKRTVAAPSVFIFPPSDEQLKSGTASVVCLLNNFYPREAKVQWKVDNALQSGNSQESVTEQDSKDSTYSLSSTLTLSKADYEKHKVYACEVTHQGLSSPVTKSFNRGEC
notes: Chimeric anti-murine CD40 antibody, heavy chain constant region V11(H2), i.e. JAC1; also called anti-murine CD40 antibody comprising JAC1
For B2, in [1], the “EC50 (read off the curve)” value was roughly 0.1 µg/mL.

B3: Fc fragment of heavy chain constant region G1-GASDALIE (hIgG1 G236A/S239D/A330L/I332E) (other)
chain: PELLAGPDVFLFPPKPKDTLMISRTPEVTCVVVDVSHEDPEVKFNWYVDGVEVHNAKTKPREEQYNSTYRVVSVLTVLHQDWLNGKEYKCKVSNKALPLPEEKTISKAKGQPREPQVYTLPPSRDELTKNQVSLTCLVKGFYPSDIAVEWESNGQPENNYKTTPPVLDSDGSFFLYSKLTVDKSRWQQGNVFSCSVMHEALHNHYTQKSLSLSPGK
Consider B3, for which the dissociation constant (Kd) in [2] amounted to 740 nM; in assay [3], 63 nM.
Regarding B4, in [4], the dissociation constant (Kd) was found to be 3000 nM.
In assay [4], B5 yielded a Kd of 1200 nM.

B6: Fc fragment of heavy chain constant region V9(H1) (hIgG1 G237D/P238D/P271G/A330R) (other)
chain: PELLGDDSVFLFPPKPKDTLMISRTPEVTCVVVDVSHEDGEVKFNWYVDGVEVHNAKTKPREEQYNSTYRVVSVLTVLHQDWLNGKEYKCKVSNKALPRPIEKTISKAKGQPREPQVYTLPPSRDELTKNQVSLTCLVKGFYPSDIAVEWESNGQPENNYKTTPPVLDSDGSFFLYSKLTVDKSRWQQGNVFSCSVMHEALHNHYTQKSLSLSPGK
On to B6, for which the binding result in assay [5] is listed as “no binding”. Besides, the values for the Kd in [2], in [3] and in assay [6] were 94 nM, 4100 nM and 580 nM, respectively.

B7: Anti-hCD40-hIgG1 (antibody)
heavy: not shown
light: DIQMTQSPSSVSASVGDRVTITCRASQGIYSWLAWYQQKPGKAPNLLIYTASTLQSGVPSRFSGSGSGTDFTLTISSLQPEDFATYYCQQANIFPLTFGGGTKVEIKRTVAAPSVFIFPPSDEQLKSGTASVVCLLNNFYPREAKVQWKVDNALQSGNSQESVTEQDSKDSTYSLSSTLTLSKADYEKHKVYACEVTHQGLSSPVTKSFNRGEC
notes: Human anti-human CD40 antibody with the light chain and VH of CP-870893; heavy chain constant region G1
On to B7, for which the binding result in [7] was “binds”. The “EC50 (read off the curve)” value in [8] is roughly 0.2 µg/mL.

B8: Anti-hCD40-hIgG3 (antibody)
heavy: not shown
light: DIQMTQSPSSVSASVGDRVTITCRASQGIYSWLAWYQQKPGKAPNLLIYTASTLQSGVPSRFSGSGSGTDFTLTISSLQPEDFATYYCQQANIFPLTFGGGTKVEIKRTVAAPSVFIFPPSDEQLKSGTASVVCLLNNFYPREAKVQWKVDNALQSGNSQESVTEQDSKDSTYSLSSTLTLSKADYEKHKVYACEVTHQGLSSPVTKSFNRGEC
notes: Human anti-human CD40 antibody, heavy chain constant region G3
For B8, the “EC50 (read off the curve)” value in assay [8] is roughly 0.1 µg/mL.

B9: Anti-hCD40-hIgG2(V11) (antibody)
heavy: not shown
light: DIQMTQSPSSVSASVGDRVTITCRASQGIYSWLAWYQQKPGKAPNLLIYTASTLQSGVPSRFSGSGSGTDFTLTISSLQPEDFATYYCQQANIFPLTFGGGTKVEIKRTVAAPSVFIFPPSDEQLKSGTASVVCLLNNFYPREAKVQWKVDNALQSGNSQESVTEQDSKDSTYSLSSTLTLSKADYEKHKVYACEVTHQGLSSPVTKSFNRGEC
notes: Human anti-human CD40 antibody, heavy chain constant region V11(H2), i.e. JAC1; also called anti-human CD40 antibody comprising JAC1
On to B9, for which, in [9], the binding result is “binds”.

B10: Anti-hCD40-hIgG2-NA (antibody)
heavy: not shown
light: DIQMTQSPSSVSASVGDRVTITCRASQGIYSWLAWYQQKPGKAPNLLIYTASTLQSGVPSRFSGSGSGTDFTLTISSLQPEDFATYYCQQANIFPLTFGGGTKVEIKRTVAAPSVFIFPPSDEQLKSGTASVVCLLNNFYPREAKVQWKVDNALQSGNSQESVTEQDSKDSTYSLSSTLTLSKADYEKHKVYACEVTHQGLSSPVTKSFNRGEC
notes: Human anti-human CD40 antibody, heavy chain constant region G2-NA (N297A)
B10: the binding result in assay [7] is listed as “no binding”.

The term EC50 (read off the curve) denotes the concentration at which the effect is half-maximal. For orientation: Kd means the concentration at which binding is half-saturated. Higher therefore signals lower affinity.

The values are drawn from patent publication US20190263918A1 (SHANGHAI JIAO TONG UNIVERSITY SCHOOL OF MEDICINE, published 2019).
